For assay [1], the target named is TOM1 in the prey vector pVP16 (UniProt O60784). As to the kind of experiment: mammalian two-hybrid assay. The settings on record: parent: est. 100, read off a plot.
Assay [2] has as its target Dab2 in the prey vector pVP16 (UniProt P98082). Kind of assay: mammalian two-hybrid assay. To be noted: parent: est. 100, read off a plot.
Assay [3] concerns the target NDP52 in the prey vector pVP16 (UniProt Q13137). As to the kind of experiment: mammalian two-hybrid assay. The settings on record: parent: est. 100, read off a plot.
The target in assay [4] is GIPC in the prey vector pVP16 (UniProt O14908). As to the kind of experiment: mammalian two-hybrid assay. To be noted: parent: est. 100, read off a plot.
The target of assay [5] is F-actin (cellular actin filaments of RPE cells) (human (endogenous in RPE cells)) (UniProt P60709). As to the kind of experiment: co-sedimentation; actin pelleting assay: homogenate of RPE cells expressing GFP-myosin VI constructs in F-actin stabilisation buffer (50 mM PIPES pH 6.9, 50 mM NaCl, mild detergents), 100 000 x g, 1 h, 37°C; quantitative immunoblotting, pellet/supernatant normalised to endogenous myosin VI; the pellet also holds cellular membranes. In general terms: Immunoblotting shows a protein as a band on a membrane.

The target in assay [6] is optineurin in the prey vector pVP16 (UniProt Q96CV9). As to the kind of experiment: mammalian two-hybrid assay. The settings on record: n = 4; parent: est. 100; read off a plot.
In assay [7] the target is LMTK2 in the prey vector pVP16 (UniProt Q8IWU2). Kind of assay: mammalian two-hybrid assay. To be noted: n = 4; parent: est. 100; read off a plot.
In assay [8] the target is F-actin (cellular actin filaments of RPE cells), P60709. As to the kind of experiment: cell fractionation into supernatant and F-actin-enriched pellet, quantitative immunoblotting. The settings on record: chain shown with the change, n = 3, parent: est. 1.3, read off a plot.

Residue numbers refer to the chain shown, from its start. Names and notes keep the numbering of the source. Where only a bound is given, the exact number is not on record here.

The results in this text go back to PMC5074368.

For the molecule “Myosin VI globular tail (amino acids 1036–1294), wild type, in the bait vector pM R1255A”, the percent of parent (% wildtype control) was determined as 99 in assay [1] (n = 3) and 60 in assay [2] (n = 5).

On to “Myosin VI globular tail (amino acids 1036–1294), wild type, in the bait vector pM R1107A”, for which the percent of parent (% wildtype control) amounted to 76 in assay [3] (n = 3) and 69 in assay [4] (n = 3).

As to “Myosin VI globular tail (amino acids 1036–1294), wild type, in the bait vector pM E1254A”, the percent of parent (% wildtype control) in assay [1] (n = 3) worked out at 87; in assay [2] (n = 5) it was 88.

As to “Myosin VI globular tail (amino acids 1036–1294), wild type, in the bait vector pM I1252A”, the results for the percent of parent (% wildtype control) in assay [1] (n = 3) and in assay [2] (n = 5) were 110 and 260, respectively.

Take “GFP-tagged full-length myosin VI-NI RRL–AAA (from UniProt Q9UM54-1 1-1285) (natural protein)”: in assay [5], the fold increase of the pellet/supernatant ratio against WT myosin VI is greater than 5 fold.

Regarding “Myosin VI globular tail (amino acids 1036–1294), wild type, in the bait vector pM L1109A”, the results for the percent of parent (% wildtype control) in assay [3] (n = 3) and in assay [4] (n = 3) were 100 and 32, respectively.

Consider “Myosin VI globular tail (amino acids 1036–1294), wild type, in the bait vector pM W1253A”, for which the percent of parent (% wildtype control) in assay [3] (n = 4) was 71; in assay [1] (n = 3), 2; in assay [1] (n = 4), 2; in assay [4] (n = 4), 59; in assay [6], 120; in assay [7], 0. Also, the percent of parent (% wildtype control) in assay [2] (n = 4) and in assay [2] (n = 5) was 1 each time.

“GFP-tagged full-length myosin VI-NI WWY–WLY (from UniProt Q9UM54-1 1-1285) (natural protein)”: the fold increase of the pellet/supernatant ratio against WT myosin VI in assay [5] came out at 3 fold.

Consider “Myosin VI globular tail (amino acids 1036–1294), wild type, in the bait vector pM R1108A”, for which the figures for the percent of parent (% wildtype control) in assay [3] (n = 3) and in assay [4] (n = 3) were 16 and 2, respectively.

In the case of “Myosin VI globular tail (amino acids 1036–1294), wild type, in the bait vector pM E1251A”, the percent of parent (% wildtype control) turned out to be 73 in assay [1] (n = 3) and 66 in assay [2] (n = 5).

B1: GFP-tagged full-length myosin VI-NI, wild type, Q9UM54-1 W1253A (protein)
chain: MEDGKPVWAPHPTDGFQMGNIVDIGPDSLTIEPLNQKGKTFLALINQVFPAEEDSKKDVEDNCSLMYLNEATLLHNIKVRYSKDRIYTYVANILIAVNPYFDIPKIYSSEAIKSYQGKSLGTRPPHVFAIADKAFRDMKVLKMSQSIIVSGESGAGKTENTKFVLRYLTESYGTGQDIDDRIVEANPLLEAFGNAKTVRNNNSSRFGKFVEIHFNEKSSVVGGFVSHYLLEKSRICVQGKEERNYHIFYRLCAGASEDIREKLHLSSPDNFRYLNRGCTRYFANKETDKQILQNRKSPEYLKAGSMKDPLLDDHGDFIRMCTAMKKIGLDDEEKLDLFRVVAGVLHLGNIDFEEAGSTSGGCNLKNKSAQSLEYCAELLGLDQDDLRVSLTTRVMLTTAGGTKGTVIKVPLKVEQANNARDALAKTVYSHLFDHVVNRVNQCFPFETSSYFIGVLDIAGFEYFEHNSFEQFCINYCNEKLQQFFNERILKEEQELYQKEGLGVNEVHYVDNQDCIDLIEAKLVGILDILDEENRLPQPSDQHFTSAVHQKHKDHFRLTIPRKSKLAVHRNIRDDEGFIIRHFAGAVCYETTQFVEKNNDALHMSLESLICESRDKFIRELFESSTNNNKDTKQKAGKLSFISVGNKFKTQLNLLLDKLRSTGASFIRCIKPNLKMTSHHFEGAQILSQLQCSGMVSVLDLMQGGYPSRASFHELYNMYKKYMPDKLARLDPRLFCKALFKALGLNENDYKFGLTKVFFRPGKFAEFDQIMKSDPDHLAELVKRVNHWLTCSRWKKVQWCSLSVIKLKNKIKYRAEACIKMQKTIRMWLCKRRHKPRIDGLVKVGTLKKRLDKFNEVVSVLKDGKPEMNKQIKNLEISIDTLMAKIKSTMMTQEQIQKEYDALVKSSEELLSALQKKKQQEEEAERLRRIQEEMEKERKRREEDEKRRRKEEEERRMKLEMEAKRKQEEEERKKREDDEKRIQAEVEAQLARQKEEESQQQAVLEQERRDRELALRIAQSEAELISDEAQADLALRRNDGTRPKMTPEQMAKEMSEFLSRGPAVLATKAAAGTKKYDLSKWKYAELRDTINTSCDIELLAACREEFHRRLKVYHAWKSKNKKRNTETEQRAPKSVTDYDFAPFLNNSPQQNPAAQIPARQREIEMNRQQRFFRIPFIRPADQYKDPQSKKKGWWYAHFDGPWIARQMELHPDKPPILLVAGKDDMEMCELNLEETGLTRKRGAEILPRQFEEIAERCGGIQYLQNAIESRQARPTYATAMLQSLLK
With B1, the other: pellet:supernatant (P:S) ratio in assay [8] stood at 2.2.

B2: GFP-tagged full-length myosin VI-NI, wild type, Q9UM54-1 I1252A (protein)
chain: B1 chain with I1252A, A1253W
Regarding B2, the other: pellet:supernatant (P:S) ratio in assay [8] was found to be 1.

B3: GFP-tagged full-length myosin VI-NI, wild type, Q9UM54-1 E1251A (protein)
chain: B1 chain with E1251A, A1253W
For the molecule B3, the other: pellet:supernatant (P:S) ratio in assay [8] is 1.2.

B4: GFP-tagged full-length myosin VI-NI, wild type, Q9UM54-1 E1254A (protein)
chain: B1 chain with A1253W, E1254A
For B4, the other: pellet:supernatant (P:S) ratio in assay [8] came out at 0.97.

B5: GFP-tagged full-length myosin VI-NI, wild type, Q9UM54-1 R1255A (protein)
chain: B1 chain with A1253W, R1255A
With B5, the other: pellet:supernatant (P:S) ratio in assay [8] amounted to 1.2.
